How the values were obtained:
Core_NNIN-es_KKEK = molecular target: T1, Core_NNIN-es_KKEK; assay: two-hybrid library CCmax; conditions: mean of both orientations;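 also: natural log of median RNA to DNA barcode read ratio; higher means stronger binding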
T1 chain: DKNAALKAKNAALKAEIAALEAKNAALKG

P1mSN = molecular target: T2, P1mSN; assay: two-hybrid library CCNG1;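 also: natural log of median RNA to DNA barcode read ratio; higher means stronger binding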
T2 chain: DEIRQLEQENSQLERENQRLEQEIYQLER

P3mSN = molecular target: T3, P3mSN; assay: two-hybrid library CCNG1;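 also: natural log of median RNA to DNA barcode read ratio; higher means stronger binding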
T3 chain: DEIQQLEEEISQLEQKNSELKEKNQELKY

P6mSN = molecular target: T4, P6mSN; assay: two-hybrid library CCNG1;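 also: natural log of median RNA to DNA barcode read ratio; higher means stronger binding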
T4 chain: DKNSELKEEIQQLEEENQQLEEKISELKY

P10mSN = molecular target: T5, P10mSN; assay: two-hybrid library CCNG1;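 also: natural log of median RNA to DNA barcode read ratio; higher means stronger binding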
T5 chain: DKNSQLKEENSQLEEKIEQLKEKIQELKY

P4mSN = molecular target: T6, P4mSN; assay: two-hybrid library CCNG1;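 also: natural log of median RNA to DNA barcode read ratio; higher means stronger binding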
T6 chain: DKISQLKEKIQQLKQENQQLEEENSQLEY

P9mSN = molecular target: T7, P9mSN; assay: two-hybrid library CCNG1
T7 chain: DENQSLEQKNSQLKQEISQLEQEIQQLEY

P5mSN = molecular target: T8, P5mSN; assay: two-hybrid library CCNG1
T8 chain: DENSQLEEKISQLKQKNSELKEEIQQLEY

P2mSN = molecular target: T9, P2mSN; assay: two-hybrid library CCNG1
T9 chain: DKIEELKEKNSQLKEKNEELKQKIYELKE

P7mSN = molecular target: T10, P7mSN; assay: two-hybrid library CCNG1
T10 chain: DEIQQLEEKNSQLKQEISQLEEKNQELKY

P12mSN = molecular target: T11, P12mSN; assay: two-hybrid library CCNG1
T11 chain: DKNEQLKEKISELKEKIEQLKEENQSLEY

P11mSN = molecular target: T12, P11mSN; assay: two-hybrid library CCNG1
T12 chain: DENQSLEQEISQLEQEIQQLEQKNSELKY

P8mSN = molecular target: T13, P8mSN; assay: two-hybrid library CCNG1
T13 chain: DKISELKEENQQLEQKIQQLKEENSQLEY

Core_NNNI-es_KKKK = molecular target: T14, Core_NNNI-es_KKKK; assay: two-hybrid library CCmax; conditions: mean of both orientations
T14 chain: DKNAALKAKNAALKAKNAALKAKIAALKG

P4A = molecular target: T15, P4A; assay: two-hybrid library CCNG1
T15 chain: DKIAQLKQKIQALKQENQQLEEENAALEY

P12A = molecular target: T16, P12A; assay: two-hybrid library CCNG1
T16 chain: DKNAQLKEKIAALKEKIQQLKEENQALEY

P1A = molecular target: T17, P1A; assay: two-hybrid library CCNG1
T17 chain: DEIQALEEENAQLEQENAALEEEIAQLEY

P11A = molecular target: T18, P11A; assay: two-hybrid library CCNG1
T18 chain: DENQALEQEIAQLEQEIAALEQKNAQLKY

P7A = molecular target: T19, P7A; assay: two-hybrid library CCNG1
T19 chain: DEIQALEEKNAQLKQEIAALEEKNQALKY

P8A = molecular target: T20, P8A; assay: two-hybrid library CCNG1
T20 chain: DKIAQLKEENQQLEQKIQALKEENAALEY

P9A = molecular target: T21, P9A; assay: two-hybrid library CCNG1
T21 chain: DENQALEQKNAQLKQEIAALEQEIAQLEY

P2A = molecular target: T22, P2A; assay: two-hybrid library CCNG1
T22 chain: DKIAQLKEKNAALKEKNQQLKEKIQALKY

P6A = molecular target: T23, P6A; assay: two-hybrid library CCNG1
T23 chain: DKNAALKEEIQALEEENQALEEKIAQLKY

P3A = molecular target: T24, P3A; assay: two-hybrid library CCNG1
T24 chain: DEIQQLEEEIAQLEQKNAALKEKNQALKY

P10A = molecular target: T25, P10A; assay: two-hybrid library CCNG1
T25 chain: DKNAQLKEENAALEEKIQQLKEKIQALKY

P5A = molecular target: T26, P5A; assay: two-hybrid library CCNG1
T26 chain: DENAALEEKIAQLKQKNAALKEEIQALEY

4H166-bA = molecular target: T27, 4H166-bA; assay: two-hybrid library CCNG1
T27 chain: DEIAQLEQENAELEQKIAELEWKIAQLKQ

4H349-bA = molecular target: T28, 4H349-bA; assay: two-hybrid library CCNG1
T28 chain: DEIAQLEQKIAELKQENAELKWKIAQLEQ

4H3041-bA = molecular target: T29, 4H3041-bA; assay: two-hybrid library CCNG1
T29 chain: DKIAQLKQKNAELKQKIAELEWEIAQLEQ

4H2931-bA = molecular target: T30, 4H2931-bA; assay: two-hybrid library CCNG1
T30 chain: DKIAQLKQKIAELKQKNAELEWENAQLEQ

4H235-bA = molecular target: T31, 4H235-bA; assay: two-hybrid library CCNG1
T31 chain: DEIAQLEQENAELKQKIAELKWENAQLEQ

4H949-bA = molecular target: T32, 4H949-bA; assay: two-hybrid library CCNG1
T32 chain: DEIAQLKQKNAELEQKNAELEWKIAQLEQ

4H3381-bA = molecular target: T33, 4H3381-bA; assay: two-hybrid library CCNG1
T33 chain: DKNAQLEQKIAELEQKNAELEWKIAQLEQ

4H4073-bN = molecular target: T34, 4H4073-bN; assay: two-hybrid library CCNG1
T34 chain: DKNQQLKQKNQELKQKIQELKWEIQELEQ

4H2760-bA = molecular target: T35, 4H2760-bA; assay: two-hybrid library CCNG1
T35 chain: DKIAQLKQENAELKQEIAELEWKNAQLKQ

4H730-bA = molecular target: T36, 4H730-bA; assay: two-hybrid library CCNG1
T36 chain: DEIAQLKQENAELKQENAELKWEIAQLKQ

4H2859-bA = molecular target: T37, 4H2859-bA; assay: two-hybrid library CCNG1
T37 chain: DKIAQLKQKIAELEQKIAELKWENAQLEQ

4H56-bA = molecular target: T38, 4H56-bA; assay: two-hybrid library CCNG1
T38 chain: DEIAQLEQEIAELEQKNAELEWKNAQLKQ

4H2444-bA = molecular target: T39, 4H2444-bA; assay: two-hybrid library CCNG1
T39 chain: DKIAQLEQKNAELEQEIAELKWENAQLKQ

4H264-bA = molecular target: T40, 4H264-bA; assay: two-hybrid library CCNG1
T40 chain: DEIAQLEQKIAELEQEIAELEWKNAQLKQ

4H2162-bA = molecular target: T41, 4H2162-bA; assay: two-hybrid library CCNG1
T41 chain: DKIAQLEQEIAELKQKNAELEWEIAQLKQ

4H3364-bA = molecular target: T42, 4H3364-bA; assay: two-hybrid library CCNG1
T42 chain: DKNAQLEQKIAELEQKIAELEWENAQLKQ

4H2518-bA = molecular target: T43, 4H2518-bA; assay: two-hybrid library CCNG1
T43 chain: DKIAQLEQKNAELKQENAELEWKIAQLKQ

4H796-bA = molecular target: T44, 4H796-bA; assay: two-hybrid library CCNG1
T44 chain: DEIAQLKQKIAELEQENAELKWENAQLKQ

4H2253-bA = molecular target: T45, 4H2253-bA; assay: two-hybrid library CCNG1
T45 chain: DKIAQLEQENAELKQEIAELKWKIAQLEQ

4H2233-bA = molecular target: T46, 4H2233-bA; assay: two-hybrid library CCNG1
T46 chain: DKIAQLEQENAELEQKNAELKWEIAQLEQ

4H2143-bA = molecular target: T47, 4H2143-bA; assay: two-hybrid library CCNG1
T47 chain: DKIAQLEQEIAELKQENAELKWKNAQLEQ

4H2585-bA = molecular target: T48, 4H2585-bA; assay: two-hybrid library CCNG1
T48 chain: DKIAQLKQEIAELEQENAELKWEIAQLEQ

4H932-bA = molecular target: T49, 4H932-bA; assay: two-hybrid library CCNG1
T49 chain: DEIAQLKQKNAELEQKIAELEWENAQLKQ

4H3628-bA = molecular target: T50, 4H3628-bA; assay: two-hybrid library CCNG1
T50 chain: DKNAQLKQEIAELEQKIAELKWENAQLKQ

4H3297-bA = molecular target: T51, 4H3297-bA; assay: two-hybrid library CCNG1
T51 chain: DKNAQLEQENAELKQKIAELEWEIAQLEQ

Core_NIIN-es_KKEK = molecular target: T52, Core_NIIN-es_KKEK; assay: two-hybrid library CCmax; conditions: mean of both orientations
T52 chain: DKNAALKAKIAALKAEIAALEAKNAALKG

Core_NIII-es_KEKK = molecular target: T53, Core_NIII-es_KEKK; assay: two-hybrid library CCmax; conditions: mean of both orientations
T53 chain: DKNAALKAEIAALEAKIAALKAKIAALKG

Core_NNIN-es_KKKK = molecular target: T54, Core_NNIN-es_KKKK; assay: two-hybrid library CCmax; conditions: mean of both orientations
T54 chain: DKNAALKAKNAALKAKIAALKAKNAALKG

Core_NNIN-es_KKKE = molecular target: T55, Core_NNIN-es_KKKE; assay: two-hybrid library CCmax; conditions: mean of both orientations
T55 chain: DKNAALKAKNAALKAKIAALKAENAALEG

Core_NNII-es_KKKE = molecular target: T56, Core_NNII-es_KKKE; assay: two-hybrid library CCmax; conditions: mean of both orientations
T56 chain: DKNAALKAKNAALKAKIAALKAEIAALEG

Q: For DENAALEAENAALEAKIAALKAENAALEG [Core_NNIN-es_EEKE], which interaction score (Core_NNIN-es_KKEK) is on record?
A: 2.2

Q: Which results are given for DKNSQLKEENSQLEEKIEQLKEKIQELKY [P10mSN]?
A: interaction score (P1mSN): 0.0169; interaction score (P3mSN): -0.696; interaction score (P6mSN): -0.212; interaction score (P10mSN): 0.0645; interaction score (P4mSN): -0.959; interaction score (P9mSN): 0.647; interaction score (P5mSN): -0.891; interaction score (P2mSN): -1.62; interaction score (P7mSN): 0.521; interaction score (P12mSN): -0.911; interaction score (P11mSN): -0.495; interaction score (P8mSN): -0.586

Q: For DENAALEAENAALEAENAALEAEIAALEG [Core_NNNI-es_EEEE], which interaction score (Core_NNNI-es_KKKK) is on record?
A: 2.16

Q: Which interaction score (P4A) does the source give for DKNAQLKEENAALEEKIQQLKEKIQALKY [P10A] here?
A: -0.619

Q: What about the interaction score (P12A) of the same binder?
A: -0.26

Q: What about the interaction score (P1A) of the same binder?
A: 0.349

Q: And the interaction score (P11A)?
A: 0.405

Q: And the interaction score (P7A)?
A: 1.36

Q: And the interaction score (P8A)?
A: -0.507

Q: What about the interaction score (P9A) of the same binder?
A: 2.37

Q: What about the interaction score (P2A) of the same binder?
A: -0.904

Q: What about the interaction score (P6A) of the same binder?
A: 0.00329

Q: And the interaction score (P3A)?
A: 0.616

Q: And the interaction score (P10A)?
A: -0.322

Q: And the interaction score (P5A)?
A: -0.424

Q: DEIAQLEQENAELEQKIAELEWKIAQLKQ [4H166-bA] was tested. Which interaction score (4H166-bA) did it give?
A: 1.79

Q: And the interaction score (4H349-bA)?
A: -0.678

Q: And the interaction score (4H3041-bA)?
A: 1.54

Q: What about the interaction score (4H2931-bA) of the same binder?
A: 1.56

Q: And the interaction score (4H235-bA)?
A: 0.308

Q: And the interaction score (4H949-bA)?
A: 0.655

Q: What about the interaction score (4H3381-bA) of the same binder?
A: 0.0741

Q: And the interaction score (4H4073-bN)?
A: 1.76

Q: And the interaction score (4H2760-bA)?
A: 1.38

Q: What about the interaction score (4H730-bA) of the same binder?
A: -0.818

Q: What about the interaction score (4H2859-bA) of the same binder?
A: 1.07

Q: And the interaction score (4H56-bA)?
A: -0.289

Q: What about the interaction score (4H2444-bA) of the same binder?
A: 0.00294

Q: What about the interaction score (4H264-bA) of the same binder?
A: 1.18

Q: What about the interaction score (4H2162-bA) of the same binder?
A: 0.273

Q: And the interaction score (4H3364-bA)?
A: -0.668

Q: And the interaction score (4H2518-bA)?
A: 2.14

Q: And the interaction score (4H796-bA)?
A: -0.288

Q: And the interaction score (4H2253-bA)?
A: 0.212

Q: And the interaction score (4H2233-bA)?
A: 0.472

Q: And the interaction score (4H2143-bA)?
A: -0.442

Q: And the interaction score (4H2585-bA)?
A: -0.344

Q: And the interaction score (4H932-bA)?
A: -0.303

Q: And the interaction score (4H3628-bA)?
A: -0.111

Q: What about the interaction score (4H3297-bA) of the same binder?
A: 1.92

Q: Which interaction score (Core_NIIN-es_KKEK) does the source give for DENAALEAEIAALEAKIAALKAENAALEG [Core_NIIN-es_EEKE] here?
A: 1.96

Q: For DENAALEAKIAALKAEIAALEAEIAALEG [Core_NIII-es_EKEE], which interaction score (Core_NIII-es_KEKK) is on record?
A: 1.92

Q: How did the interaction score (Core_NNIN-es_KKKK) turn out when DENAALEAENAALEAEIAALEAENAALEG [Core_NNIN-es_EEEE] was run?
A: 1.83

Q: How did the interaction score (Core_NNIN-es_KKKE) turn out when DENAALEAENAALEAEIAALEAKNAALKG [Core_NNIN-es_EEEK] was run?
A: 2.07

Q: DENAALEAENAALEAEIAALEAKIAALKG [Core_NNII-es_EEEK] was tested. Which interaction score (Core_NNII-es_KKKE) did it give?
A: 2.42
